The target in assay [1] is wild type full-length GFP-LRRK2 (human) (UniProt Q5S007). In words: SILAC mass spectrometry of GFP-binder immunoprecipitates from HEK-293 lysates; range told of the group of isoforms.
The target of assay [2] is full-length GFP-LRRK2[G2019S] mutant (human) (UniProt Q5S007). The description is as above.
Assay [3] deals with T1, full length human FLAG-LRRK2 (wild type) (human, UniProt Q5S007 1-2527, phosphoserine at 860, 910, 935, 955, 973 and 976 (mass spectrometry)).
T1 construct: mature; also called full length LRRK2
T1 sequence (Q5S007 whole entry): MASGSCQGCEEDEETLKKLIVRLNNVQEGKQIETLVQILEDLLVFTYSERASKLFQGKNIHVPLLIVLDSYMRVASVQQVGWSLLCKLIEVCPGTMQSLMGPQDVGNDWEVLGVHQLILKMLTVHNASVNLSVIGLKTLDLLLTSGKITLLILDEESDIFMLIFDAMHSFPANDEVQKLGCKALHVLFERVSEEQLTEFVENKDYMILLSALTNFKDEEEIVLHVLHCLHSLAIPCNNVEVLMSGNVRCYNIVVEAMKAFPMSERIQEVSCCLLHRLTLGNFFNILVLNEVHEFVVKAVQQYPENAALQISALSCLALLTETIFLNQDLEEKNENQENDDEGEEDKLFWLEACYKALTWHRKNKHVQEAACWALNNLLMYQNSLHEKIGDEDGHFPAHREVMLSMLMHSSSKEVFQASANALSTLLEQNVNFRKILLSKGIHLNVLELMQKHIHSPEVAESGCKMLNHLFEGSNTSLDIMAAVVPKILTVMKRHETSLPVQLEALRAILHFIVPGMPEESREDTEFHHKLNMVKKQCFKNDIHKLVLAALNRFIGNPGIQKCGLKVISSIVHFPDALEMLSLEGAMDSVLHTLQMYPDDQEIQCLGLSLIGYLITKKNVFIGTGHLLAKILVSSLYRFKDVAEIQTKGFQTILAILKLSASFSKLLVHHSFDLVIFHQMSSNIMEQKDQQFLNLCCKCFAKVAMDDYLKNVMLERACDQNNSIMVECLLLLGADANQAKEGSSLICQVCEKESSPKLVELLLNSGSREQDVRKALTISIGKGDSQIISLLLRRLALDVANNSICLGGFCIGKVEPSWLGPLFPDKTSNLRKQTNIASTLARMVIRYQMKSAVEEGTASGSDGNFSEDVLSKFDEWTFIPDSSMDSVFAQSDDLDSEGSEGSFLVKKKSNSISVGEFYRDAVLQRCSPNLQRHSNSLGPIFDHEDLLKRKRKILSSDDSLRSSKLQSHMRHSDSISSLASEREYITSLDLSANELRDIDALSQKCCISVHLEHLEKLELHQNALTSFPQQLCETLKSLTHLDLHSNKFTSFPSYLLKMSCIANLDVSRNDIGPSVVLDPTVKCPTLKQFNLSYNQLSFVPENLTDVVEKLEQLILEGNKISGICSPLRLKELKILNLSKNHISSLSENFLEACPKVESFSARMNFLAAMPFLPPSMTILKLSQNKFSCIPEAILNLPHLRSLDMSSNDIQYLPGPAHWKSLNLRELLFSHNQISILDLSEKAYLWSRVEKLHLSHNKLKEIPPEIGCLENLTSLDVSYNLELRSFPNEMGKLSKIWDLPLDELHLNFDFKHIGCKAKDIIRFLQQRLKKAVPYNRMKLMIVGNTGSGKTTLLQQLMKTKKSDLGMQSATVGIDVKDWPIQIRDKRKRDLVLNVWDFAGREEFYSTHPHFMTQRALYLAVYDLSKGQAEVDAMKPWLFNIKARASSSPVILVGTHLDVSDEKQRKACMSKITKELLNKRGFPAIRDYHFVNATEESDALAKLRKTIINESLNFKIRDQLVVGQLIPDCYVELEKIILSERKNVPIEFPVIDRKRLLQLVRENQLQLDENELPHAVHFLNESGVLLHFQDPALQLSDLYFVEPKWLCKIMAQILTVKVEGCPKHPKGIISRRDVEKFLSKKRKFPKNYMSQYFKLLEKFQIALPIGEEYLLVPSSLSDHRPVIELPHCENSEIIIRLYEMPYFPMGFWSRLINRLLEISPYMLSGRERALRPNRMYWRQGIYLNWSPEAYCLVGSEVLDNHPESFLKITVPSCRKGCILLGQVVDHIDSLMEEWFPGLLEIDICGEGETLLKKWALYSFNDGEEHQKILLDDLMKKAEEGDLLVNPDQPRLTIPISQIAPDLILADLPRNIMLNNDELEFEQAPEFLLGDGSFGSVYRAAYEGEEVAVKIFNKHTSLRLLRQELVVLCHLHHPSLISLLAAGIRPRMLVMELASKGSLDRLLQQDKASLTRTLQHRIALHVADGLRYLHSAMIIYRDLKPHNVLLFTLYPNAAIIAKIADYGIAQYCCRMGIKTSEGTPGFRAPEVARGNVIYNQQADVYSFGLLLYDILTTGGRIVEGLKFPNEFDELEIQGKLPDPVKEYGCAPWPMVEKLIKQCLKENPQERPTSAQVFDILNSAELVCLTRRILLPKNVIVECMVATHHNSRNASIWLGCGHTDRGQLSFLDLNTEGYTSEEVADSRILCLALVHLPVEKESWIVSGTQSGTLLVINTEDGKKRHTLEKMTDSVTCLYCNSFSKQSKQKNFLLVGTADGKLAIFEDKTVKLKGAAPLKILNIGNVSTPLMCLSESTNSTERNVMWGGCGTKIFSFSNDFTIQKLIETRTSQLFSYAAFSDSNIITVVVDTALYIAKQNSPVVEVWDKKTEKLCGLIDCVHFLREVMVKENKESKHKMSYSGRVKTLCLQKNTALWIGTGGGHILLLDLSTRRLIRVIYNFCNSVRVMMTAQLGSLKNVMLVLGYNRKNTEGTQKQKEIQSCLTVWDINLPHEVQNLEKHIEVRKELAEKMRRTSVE
In words: glutathione-Sepharose affinity purification of GST tagged 14-3-3 isoforms from HEK-293 cells expressing FLAG-LRRK2, anti-FLAG immunoblot. As for the experimental part:
FIG. 2. […] A.) 5 mg of Swiss 3T3 lysate was subjected to immunoprecipitation with control IgG or anti-LRRK2 (S348C) antibody. Immunoprecipitates were resolved on 4-12% Novex SDS-polyacrylamide gel and immunoblotted with antibodies against LRRK2 (S374C), Hsp90 and pan 14-3-3. B.) 5 mg of Swiss 3T3 lysate was subjected to immunoprecipitation with anti-pan 14-3-3 antibodies and immunoprecipitates were resolved on 4-12% Novex SDS-polyacrylamide gels and immunoblotted with antibodies against pan-14-3-3 and LRRK2 (S374C). […] 36 hours post transfection cells were lysed and glutathione-Sepharose affinity purified proteins immunoblotted with anti-GST or anti-FLAG antibodies. D.) Fragments encoding the indicated domains of LRRK2 were transiently expressed in HEK-293 cells and immunoprecipitated with anti-FLAG antibodies. The immunoprecipitates were resolved on 4-12% Novex SDS-polyacrylamide gels and probed with either anti-FLAG antibodies or 14-3-3 overlay with digoxigenin labeled 14-3-3 in a far western assay. […] E.) Endogenous LRRK2 was immunoprecipitated from Swiss 3T3 cells with anti-LRRK2 (S348C) and subsequently treated with λ-phosphatase in the absence or presence of EDTA prior to immunoblot analysis with indicated antibodies or a 14-3-3 overlay assay. F.) As in E, except experiment undertaken with immunoprecipitated FLAG-LRRK2 obtained following transient transfection in HEK-293 cells.
Immunological procedures. Cell lysates (10-30 μg) were resolved by electrophoresis on SDS polyacrylamide gels or Novex 4-12% gradient gels, and electroblotted to nitrocellulose membranes. Membranes were blocked with 5% skimmed milk (w/v) in 50 mM Tris/HCl, pH 7.5, 0.15 M NaCl and 0.1% (v/v) Tween (TBST Buffer). For phospho-antibodies, primary antibody was used at a concentration of 1 μg/ml, diluted in 5% skimmed milk in TBST with the inclusion of 10 μg/ml dephosphorylated-peptide.
On the technique in general: Immunoblotting shows a protein as a band on a membrane.

Chain of full-length GFP-LRRK2[G2019S] mutant (human) (Q5S007 whole entry G2019S): as the sequence (Q5S007 whole entry) above, with G2019S counted along it
Chain of wild type full-length GFP-LRRK2 (human) (Q5S007 whole entry, canonical isoform): as the sequence (Q5S007 whole entry) above

For the molecule endogenous 14-3-3 in 293 cells, the fold enrichment compared to GFP alone in assay [1] and in assay [2] was 10 to 30 fold in each case.

B1: GST tagged human 14-3-3 epsilon (other)
chain: MDDREDLVYQAKLAEQAERYDEMVESMKKVAGMDVELTVEERNLLSVAYKNVIGARRASWRIISSIEQKEENKGGEDKLKMIREYRQMVETELKLICCDILDVLDKHLIPAANTGESKVFYYKMKGDYHRYLAEFATGNDRKEAAENSLVAYKAASDIAMTELPPTHPIRLGLALNFSVFYYEILNSPDRACRLAKAAFDDAIAELDTLSEESYKDSTLIMQLLRDNLTLWTSDMQGDGEEQNKEALQDVEDENQ
notes: As for GST tagged 14-3-3 beta; also called GST-14-3-3 epsilon; not shown: GST tag from the pEBG plasmid
For the molecule B1, in assay [3], the binding result was “binds”.

B2: GST tagged human 14-3-3 eta (other)
chain: MGDREQLLQRARLAEQAERYDDMASAMKAVTELNEPLSNEDRNLLSVAYKNVVGARRSSWRVISSIEQKTMADGNEKKLEKVKAYREKIEKELETVCNDVLSLLDKFLIKNCNDFQYESKVFYLKMKGDYYRYLAEVASGEKKNSVVEASEAAYKEAFEISKEQMQPTHPIRLGLALNFSVFYYEIQNAPEQACLLAKQAFDDAIAELDTLNEDSYKDSTLIMQLLRDNLTLWTSDQQDEEAGEGN
notes: As for GST tagged 14-3-3 beta; also called GST-14-3-3 eta; not shown: GST tag from the pEBG plasmid
Turning to B2, the binding result in assay [3] was “binds”.

B3: GST tagged human 14-3-3 beta (other)
chain: MTMDKSELVQKAKLAEQAERYDDMAAAMKAVTEQGHELSNEERNLLSVAYKNVVGARRSSWRVISSIEQKTERNEKKQQMGKEYREKIEAELQDICNDVLELLDKYLIPNATQPESKVFYLKMKGDYFRYLSEVASGDNKQTTVSNSQQAYQEAFEISKKEMQPTHPIRLGLALNFSVFYYEILNSPEKACSLAKTAFDEAIAELDTLNEESYKDSTLIMQLLRDNLTLWTSENQGDEGDAGEGEN
notes: One of all seven isoforms of human 14-3-3 expressed from pEBG plasmids; also called GST-14-3-3 beta; not shown: GST tag from the pEBG plasmid
As for B3, in assay [3], the binding result was “binds”.

B4: GST tagged human 14-3-3 zeta (other)
chain: MDKNELVQKAKLAEQAERYDDMAACMKSVTEQGAELSNEERNLLSVAYKNVVGARRSSWRVVSSIEQKTEGAEKKQQMAREYREKIETELRDICNDVLSLLEKFLIPNASQAESKVFYLKMKGDYYRYLAEVAAGDDKKGIVDQSQQAYQEAFEISKKEMQPTHPIRLGLALNFSVFYYEILNSPEKACSLAKTAFDEAIAELDTLSEESYKDSTLIMQLLRDNLTLWTSDTQGDEAEAGEGGEN
notes: As for GST tagged 14-3-3 beta; also called GST-14-3-3 zeta; not shown: GST tag from the pEBG plasmid
For the molecule B4, the binding result in assay [3] is “binds”.

B5: GST tagged human 14-3-3 theta (other)
chain: MEKTELIQKAKLAEQAERYDDMATCMKAVTEQGAELSNEERNLLSVAYKNVVGGRRSAWRVISSIEQKTDTSDKKLQLIKDYREKVESELRSICTTVLELLDKYLIANATNPESKVFYLKMKGDYFRYLAEVACGDDRKQTIDNSQGAYQEAFDISKKEMQPTHPIRLGLALNFSVFYYEILNNPELACTLAKTAFDEAIAELDTLNEDSYKDSTLIMQLLRDNLTLWTSDSAGEECDAAEGAEN
notes: As for GST tagged 14-3-3 beta; also called GST-14-3-3 theta; not shown: GST tag from the pEBG plasmid
Turning to B5, the binding result in assay [3] is on record as “binds”.

B6: GST tagged human 14-3-3 gamma (other)
chain: MVDREQLVQKARLAEQAERYDDMAAAMKNVTELNEPLSNEERNLLSVAYKNVVGARRSSWRVISSIEQKTSADGNEKKIEMVRAYREKIEKELEAVCQDVLSLLDNYLIKNCSETQYESKVFYLKMKGDYYRYLAEVATGEKRATVVESSEKAYSEAHEISKEHMQPTHPIRLGLALNYSVFYYEIQNAPEQACHLAKTAFDDAIAELDTLNEDSYKDSTLIMQLLRDNLTLWTSDQQDDDGGEGNN
notes: As for GST tagged 14-3-3 beta; also called GST-14-3-3 gamma; not shown: GST tag from the pEBG plasmid
Consider B6, for which the binding result in assay [3] was “binds”.

B7: GST tagged human 14-3-3 sigma (other)
chain: MERASLIQKAKLAEQAERYEDMAAFMKGAVEKGEELSCEERNLLSVAYKNVVGGQRAAWRVLSSIEQKSNEEGSEEKGPEVREYREKVETELQGVCDTVLGLLDSHLIKEAGDAESRVFYLKMKGDYYRYLAEVATGDDKKRIIDSARSAYQEAMDISKKEMPPTNPIRLGLALNFSVFHYEIANSPEEAISLAKTTFDEAMADLHTLSEDSYKDSTLIMQLLRDNLTLWTADNAGEEGGEAPQEPQS
notes: As for GST tagged 14-3-3 beta; also called atypical sigma isoform; not shown: GST tag from the pEBG plasmid
For the molecule B7, the binding result in assay [3] is “no binding”.

The record behind these values is patent publication US20110256062A1 (MEDICAL RESEARCH COUNCIL, published 2011).
